Source: patent US20250051821

Key:
IFF05588 = molecular target: T1, IFF05588
T1 chain: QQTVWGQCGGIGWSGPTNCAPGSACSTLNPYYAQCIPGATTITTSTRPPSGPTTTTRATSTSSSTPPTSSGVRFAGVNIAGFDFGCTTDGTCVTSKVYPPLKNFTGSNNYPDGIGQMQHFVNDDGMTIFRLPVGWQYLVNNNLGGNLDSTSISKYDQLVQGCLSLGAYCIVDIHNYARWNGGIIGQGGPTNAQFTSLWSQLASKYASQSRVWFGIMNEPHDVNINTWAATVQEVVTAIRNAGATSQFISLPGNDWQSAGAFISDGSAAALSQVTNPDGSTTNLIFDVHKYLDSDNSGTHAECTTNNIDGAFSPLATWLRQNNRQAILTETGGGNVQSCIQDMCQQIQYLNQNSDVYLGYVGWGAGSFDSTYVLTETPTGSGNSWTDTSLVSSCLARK

IFF01540 = molecular target: T2, IFF01540
T2 chain: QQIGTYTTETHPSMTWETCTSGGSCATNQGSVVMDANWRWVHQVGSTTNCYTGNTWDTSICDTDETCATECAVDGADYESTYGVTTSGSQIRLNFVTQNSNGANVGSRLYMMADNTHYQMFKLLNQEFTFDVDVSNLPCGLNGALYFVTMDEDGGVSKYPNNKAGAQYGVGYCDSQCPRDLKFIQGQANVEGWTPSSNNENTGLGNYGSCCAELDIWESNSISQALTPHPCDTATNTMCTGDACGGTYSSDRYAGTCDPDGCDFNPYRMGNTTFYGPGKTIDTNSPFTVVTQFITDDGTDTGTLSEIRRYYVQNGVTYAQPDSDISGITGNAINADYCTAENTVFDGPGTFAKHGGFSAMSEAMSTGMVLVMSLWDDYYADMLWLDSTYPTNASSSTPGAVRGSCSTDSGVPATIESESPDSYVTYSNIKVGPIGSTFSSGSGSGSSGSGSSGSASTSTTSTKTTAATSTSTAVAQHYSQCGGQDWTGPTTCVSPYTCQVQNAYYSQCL

IFF01509 = molecular target: T3, IFF01509
T3 chain: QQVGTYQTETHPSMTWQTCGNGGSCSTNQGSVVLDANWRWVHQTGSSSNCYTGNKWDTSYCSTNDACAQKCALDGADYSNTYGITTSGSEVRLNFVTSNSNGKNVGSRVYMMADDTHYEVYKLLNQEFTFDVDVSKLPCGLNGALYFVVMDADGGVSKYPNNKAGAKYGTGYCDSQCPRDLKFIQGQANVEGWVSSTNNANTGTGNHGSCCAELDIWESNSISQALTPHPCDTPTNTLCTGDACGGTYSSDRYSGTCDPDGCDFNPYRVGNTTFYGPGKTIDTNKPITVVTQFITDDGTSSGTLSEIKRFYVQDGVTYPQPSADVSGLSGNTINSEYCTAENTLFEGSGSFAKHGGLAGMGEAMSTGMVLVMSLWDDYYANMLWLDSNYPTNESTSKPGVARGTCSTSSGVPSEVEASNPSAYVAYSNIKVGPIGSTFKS

IFF07399 = molecular target: T4, IFF07399
T4 chain: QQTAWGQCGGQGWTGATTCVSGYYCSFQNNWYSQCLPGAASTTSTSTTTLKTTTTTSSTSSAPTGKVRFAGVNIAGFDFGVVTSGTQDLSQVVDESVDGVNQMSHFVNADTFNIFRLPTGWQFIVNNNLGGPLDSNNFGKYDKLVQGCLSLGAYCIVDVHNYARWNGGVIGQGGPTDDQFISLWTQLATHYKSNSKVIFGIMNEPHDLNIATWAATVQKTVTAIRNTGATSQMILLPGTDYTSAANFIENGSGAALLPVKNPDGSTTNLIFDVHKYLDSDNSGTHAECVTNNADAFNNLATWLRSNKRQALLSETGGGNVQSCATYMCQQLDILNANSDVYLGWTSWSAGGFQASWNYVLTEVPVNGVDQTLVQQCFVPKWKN

[1] = molecular target: T5, IFF01073 produced in T. reesei with glycosylation
T5 chain: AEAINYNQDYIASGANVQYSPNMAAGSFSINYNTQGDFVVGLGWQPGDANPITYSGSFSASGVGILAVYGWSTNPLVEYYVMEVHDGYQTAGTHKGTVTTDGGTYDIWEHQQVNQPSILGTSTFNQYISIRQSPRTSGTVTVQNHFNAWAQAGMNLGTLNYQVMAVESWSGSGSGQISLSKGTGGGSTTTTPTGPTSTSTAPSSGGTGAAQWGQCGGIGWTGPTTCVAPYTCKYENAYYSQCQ

[2] = molecular target: T6, IFF01073 produced in E. coli without glycosylation
T6 chain: T5 chain

B1: IFF05497 (protein)
chain: LAILDKPVIQPNFPGNGLASLGQGLMDHLAPTHSTWDDWGAGWIPQDCKSLVEGAGLSASDVIPFNIHYDDCAQTWTFCRHKDSPLSEITILDIFGRLPVRMRSFVRHLVFIPGAKSAGSNGDNVLLRGDIDVTVFAHEIGHSLDSHAFDPSYGVPFSTGNVWISNYNLDSAVPDPYAQTSQQENFAQQTVISLYDKVVPGGIGTIQPNWQAIFHQYATLEGYIGDVIIPGGTCTHRLTDSPPVQMSSLAKGRRALGPKPNVALSPEVEEIEAIPMKSSITMTSFDEAGKPNGTYVINL
IFF05588
  Mobility change (SDS-PAGE): yes
  Relative late peak area (centered, scaled, averaged over 5, 10 and 15 min): -0.77
  Relative late peak area (centered, scaled, averaged over doses, 24 h; sample diluted 1-fold): -0.28
IFF06679
  Mobility change (SDS-PAGE): yes
IFF01540
  Mobility change (SDS-PAGE): yes
IFF08955
  Mobility change (SDS-PAGE): no
IFF01509
  Mobility change (SDS-PAGE): no
IFF07399
  Gel mobility change (SDS-PAGE): yes
  Mobility change (SDS-PAGE): yes
IFF08955v3
  Mobility change (SDS-PAGE): yes
IFF03904
  Mobility change (SDS-PAGE): yes
[1]
  Gel mobility change (SDS-PAGE): yes
  Mobility change (SDS-PAGE): yes
[2]
  Gel mobility change (SDS-PAGE): no
